This is an account of results in PMC10019453, “Integrative structural analysis of the type III secretion system needle complex from Shigella flexneri” (Protein Science : A Publication of the Protein Society, 2023).

In this test the target is T1, MxiD[SctC] (Shigella flexneri, UniProt Q04641 23-566).
T1 construct: the last 18 residues (S549-Y566) are not resolved; 16 subunits in the connector (N0, N1), 15 in the OM ring (N3, secretin, S domain); also called secretin; OM ring
T1 sequence: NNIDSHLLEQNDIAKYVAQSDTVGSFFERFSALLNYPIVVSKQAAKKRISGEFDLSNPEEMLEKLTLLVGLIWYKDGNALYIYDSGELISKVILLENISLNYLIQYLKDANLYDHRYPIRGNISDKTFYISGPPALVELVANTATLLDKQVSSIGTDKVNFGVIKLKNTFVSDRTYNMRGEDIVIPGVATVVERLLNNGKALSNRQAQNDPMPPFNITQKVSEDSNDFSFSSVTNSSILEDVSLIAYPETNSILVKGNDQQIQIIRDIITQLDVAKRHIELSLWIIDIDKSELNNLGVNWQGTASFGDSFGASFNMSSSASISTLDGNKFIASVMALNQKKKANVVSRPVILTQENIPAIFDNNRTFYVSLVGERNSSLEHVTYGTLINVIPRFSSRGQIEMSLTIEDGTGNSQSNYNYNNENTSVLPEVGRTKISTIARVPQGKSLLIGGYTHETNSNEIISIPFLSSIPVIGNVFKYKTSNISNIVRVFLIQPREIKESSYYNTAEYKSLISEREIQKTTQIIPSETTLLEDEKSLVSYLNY
As to the kind of experiment: cross-linking; BS3 cross-linking mass spectrometry of the isolated needle complex; 0.2-0.3 mM BS3, 30 min, room temperature; 2% FDR at residue-pair level. To be noted: both partners purified.

B1: MxiM[SctG] (natural protein)
chain: CALKSSSNSEKEWHIVPVSKDYFSIPNDLLWSFNTTNKSINVYSKCISGKAVYSFNAGKFMGNFNVKEVDGCFMDAQKIAIDKLFSMLKDGVVLKGNKINDTILIEKDGEVKLKLIRGI
modifications: lipidated N-terminus
notes: MxiM[SctG], pilotin of the Shigella flexneri T3SS; also called pilotin; pilot protein
Regarding B1, the binding result is given as “binds”.
